{"source": "patent US11274129B2", "about": "“Methods for protein tyrosine phosphorylation profiling with variant SH2 domains” (priority 2016, dated 2022)", "molecules": {"B1": {"name": "Triple mutant: TrM human Src SH2 domain variant with Thr183Val, Cys188Ala and Lys206Leu; His6/GST-tagged form SEQ ID NO: 11 (protein)", "chain": "DSIQAEEWYFGKITRRESERLLLNAENPRGTFLVRESETVKGAYALSVSDFDNAKGLNVKHYLIRKLDSGGFYITSRTQFNSLQQLVAYYSKHADGLCHRLTTVCPTSK", "modifications": "SH2 protein domain; TrM human Src SH2 domain"}}, "tested_on": "pTyr-including peptides from pervanadate-treated Jurkat cells", "assay": "Enrichment of pTyr-including peptides from pervanadate-treated Jurkat cells by affinity reagents, 1D LC-MS/MS", "parameters": "species or system human", "conditions": "3 mg Jurkat peptides", "description": "Experiments were conducted to determine the relative efficacy of the variant Src SH2 domains and commonly used anti-pTyr antibodies as affinity reagents for pTyr-including peptides from biological samples. His6/GST-tagged TrM Src SH2 domain (SEQ ID NO: 11) and His6-tagged QuadM Src SH2 domain (SEQ ID NO: 13), as well as anti-pTyr antibodies, were prepared in functionally-equivalent molar amounts by using half the molar amount of the antibodies relative to the SH2 domain variants given that each antibody molecule has two binding sites for its antigen.\nThe first experiment tested the relative ability of the following affinity reagents to extract pTyr-including peptides from a peptide mixture prepared from Jurkat cells: a His6/GST-tagged TrM Src SH2 (SEQ ID NO: 11), a His6-tagged QuadM Src SH2 (SEQ ID NO: 13), the anti-pTyr antibody 4G10 (agarose conjugate, obtained from Millipore), and a mixture of commercially-available anti-pTyr antibodies. […] The two SH2 affinity reagents were also tested at a 30× amount; the antibodies were not tested at a 30× amount due to the prohibitive cost of doing so. The purified SH2 affinity reagents were prepared as described in Example 1. The antibody mixture contained 4G10 (as above), PY99 (obtained from Santa Cruz Biotechnology), and P-Tyr-100 (slurry of PTMScan® Phospho-Tyrosine Mouse mAb, obtained from Cell Signaling Technology). Since the concentration of P-Tyr-100 is unknown, the amount was used as recommended by the vendor (i.e., 4 μL for 1 mg peptide digest).\nFIG. 2A presents a schematic of the experimental design. Each amount of His6-tagged SH2 domain variant or antibody was subjected to a binding experiment with 3 mg of a peptide mixture prepared from pervanadate-treated Jurkat cells.\nJurkat cells (obtained from ATCC) were cultured in a humidified atmosphere of 5% CO2 at 37° C. in Roswell Park Memorial Institute 1640 medium (RPMI-1640) supplemented with 10% bovine serum and 100 U/mL of streptomycin and penicillin.\nThe cells were again collected by centrifugation. The cell pellets were gently homogenized in an ice-cold lysis buffer containing 8 M urea, 50 mM tris(hydroxymethyl)aminomethane (Tris)-HCl (pH 7.4), 2% protease inhibitor cocktail (v/v, obtained from Sigma-Aldrich), 1% Triton X-100 (v/v), 1 mM NaF, and 1 mM Na3VO4, followed by sonication at 400 W for 120 s. After centrifugation at 25,000 g for 1 h, proteins were precipitated in ice-cold acetone/ethanol/acetic acid (50/50/0.1, V/V/V) solution. Subsequently, the proteins were diluted in reducing buffer containing 100 mM triethylammonium bicarbonate (TEAB) buffer (pH 8.2) and 8 M urea, and the final protein concentration was determined by Bradford assay. The protein suspension was reduced in 10 mM dithiothreitol (DTT) at 37° C. for 2 h, and it was then alkylated in 20 mM iodoacetamide (IAA) in darkness at room temperature for another 30 min. Trypsin digestion was performed at 37° C. overnight with an enzyme-to-protein ratio of 1/25 (w/w). The resulting peptide mixture was stored at −80° C. for further analysis.\nDesalted Jurkat peptides (30 mg) were dissolved in ice-cold immunoaffinity purification (IAP) buffer and then split into 10 aliquots with 3 mg of Jurkat peptides each. Binding experiments were performed with the amounts of antibody (1×, 5×) or SH2 domain variant (1×, 5×, 30×) set out in Table 1 and FIG. 2A.\nFor antibody-based enrichment, 4G10 or the antibody mixture was incubated with the sample at 4° C. overnight while rotating. The beads were washed three times with ice-cold IAP buffer and twice with ice-cold water. To release the bound peptides, the beads were eluted twice with 200 μL 0.15% trifluoroacetic acid (TFA) for 15 min at room temperature.\nFor SH2-based enrichment, Ni-NTA beads containing the purified SH2 proteins were washed extensively in twenty column volumes of PBS buffer (pH 7.0) containing 20 mM imidazole. […] The washed beads were incubated with the peptide mixture at 4° C. overnight while rotating. […]", "data": [{"molecule": "B1", "values": [{"measurement": "Number of pTyr sites identified", "setting": "0.375 nmol (1x) pTyr-binding sites", "value": 578}, {"measurement": "Number of pTyr sites identified", "setting": "1.875 nmol (5x) pTyr-binding sites", "value": 1060}, {"measurement": "Number of pTyr sites identified", "setting": "11.25 nmol (30x) pTyr-binding sites", "value": 1165}]}]}
